Measured values reported in patent publication US20260242735A1 (UNIVERSIT T BASEL, published 2026).

B1: Refmab #3 (antibody, V domains shown)
VH: QVQLVQSGAEVKKPGSSVKVSCKASGYTFTDYNMHWVRQAPGQGLEWIGYIYPYNGGTGYNQKFKSKATITADESTNTAYMELSSLRSEDTAVYYCARGRPAMDYWGQGTLVTVSS
VL: DIQMTQSPSSLSASVGDRVTITCRASESVDNYGISFMNWFQQKPGKAPKLLIYAASNQGSGVPSRFSGSGSGTDFTLTISSLQPDDFATYYCQQSKEVPWTFGQGTKVEIK
notes: Full-length format is human IgG1 Fc silent (PG-LALA); The alanine scan used IgG or Fab
B2: Refmab #4 (antibody, V domains shown)
VH: QVQLVQSGAEVKKPGESVKVSCKASGYTFTNYGMNWVKQAPGQGLEWMGWINTYTGEPTYADKFQGRVTMTTDTSTSTAYMEIRNLGGDDTAVYYCARWSWSDGYYVYFDYWGQGTSVTVSS
VL: DIVMTQSPDSLTVSLGERTTINCKSSQSVLDSSTNKNSLAWYQQKPGQPPKLLLSWASTRESGIPDRFSGSGSGTDFTLTIDSPQPEDSATYYCQQSAHFPITFGQGTRLEIK
notes: as for B1
B3: Refmab #1 (antibody, V domains shown)
VH: EVQLVQSGAEVKKPGSSVKVSCKASGYTITDSNIHWVRQAPGQSLEWIGYIYPYNGGTDYNQKFKNRATLTVDNPTNTAYMELSSLRSEDTAFYYCVNGNPWLAYWGQGTLVTVSS
VL: DIQLTQSPSTLSASVGDRVTITCRASESLDNYGIRFLTWFQQKPGKAPKLLMYAASNQGSGVPSRFSGSGSGTEFTLTISSLQPDDFATYYCQQTKEVPWSFGQGTKVEVK
notes: Full-length format is human IgG1 (Absolute Antibody Ab00283-10.0); The alanine scan used IgG or Fab; also called hP67.6
B4: Refmab #2 (antibody, V domains shown)
VH: QVQLVQSGAEVKKPGSSVKVSCKASGGTFSDYAISWVRQAPGQGLEWMGRIIPILGVADYAQKFQGRVTITADKSTRTAYMELSSLRSEDTAVYYCARNWADAFDIWGQGTMVTVSS
VL: DIQLTQSPSSLSASVGDRVTITCRASQGISSVLAWYQQKPGKAPKLLIYDASSLESGVPSRFSGSGSGTDFTLTISSLQPEDFATYYCQQFDSSITFGQGTKLEIK
notes: as for B1
B5: Refmab #4 (antibody, V domains shown)
VH: B2 VH
VL: B2 VL
notes: The alanine scan used IgG or Fab

Experiments:
human CD33 W22A = human CD33 W22A (human, UniProt P20138 18-364); experiment: alanine scan, flow cytometry;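 note: HEK293-T cells transiently expressing single-residue alanine mutants of CD33 (alanine swapped to serine), antibody binding read by fluorescence in duplicate, background-subtracted, expressed relative to wild-type CD33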
human CD33 W22A, sequence (P20138 18-364 W22A limits assumed): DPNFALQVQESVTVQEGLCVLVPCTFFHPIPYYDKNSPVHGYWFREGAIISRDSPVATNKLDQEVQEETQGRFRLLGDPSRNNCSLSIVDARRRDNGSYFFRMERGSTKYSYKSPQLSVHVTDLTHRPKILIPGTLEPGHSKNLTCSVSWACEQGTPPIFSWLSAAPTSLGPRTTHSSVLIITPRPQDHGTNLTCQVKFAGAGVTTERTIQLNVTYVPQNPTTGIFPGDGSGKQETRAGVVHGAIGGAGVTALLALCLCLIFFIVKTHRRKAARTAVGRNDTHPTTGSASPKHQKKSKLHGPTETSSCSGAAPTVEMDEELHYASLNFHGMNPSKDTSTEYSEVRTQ
Description: (§1) An alanine scan on human CD33 was performed to the determine the residues on CD33 that are involved in binding to the antibodies investigated. […] Briefly, a mutation library of CD33 was created by high-throughput, site-directed mutagenesis. Each residue was individually mutated to alanine, with alanine codons mutated to serine. The mutant library was arrayed in 384-well microplates and transiently transfected into HEK293-T. Following transfection, cells were incubated with the indicated antibodies (IgG or Fab) at concentrations pre-determined using an independent immunofluorescence titration curve on wild type CD33. […] Binding of each antibody to each mutant clone was determined in duplicates. For each point, background fluorescence was subtracted from the raw data, which were then normalized to antibody reactivity with wild type CD33.
(§2) Critical residues for antibody binding (outlined in dark grey) were residues whose mutations led to a binding of the test Abs of less than 20%. Additional secondary residues (outlined in light grey) were identified that led to a binding of the test Abs of between 20 and 40% as compared to the wild type CD33.

human CD33 D51A = human CD33 D51A (human, UniProt P20138 18-364); experiment: alanine scan, flow cytometry;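 note: HEK293-T cells transiently expressing single-residue alanine mutants of CD33 (alanine swapped to serine), antibody binding read by fluorescence in duplicate, background-subtracted, expressed relative to wild-type CD33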
human CD33 D51A, sequence (P20138 18-364 D51A limits assumed): as the sequence (P20138 18-364 W22A limits assumed) above, with A5W, D34A counted along it
Description: as §1, §2

human CD33 H57A = human CD33 H57A (human, UniProt P20138 18-364); experiment: alanine scan, flow cytometry;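 note: HEK293-T cells transiently expressing single-residue alanine mutants of CD33 (alanine swapped to serine), antibody binding read by fluorescence in duplicate, background-subtracted, expressed relative to wild-type CD33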
human CD33 H57A, sequence (P20138 18-364 H57A limits assumed): as the sequence (P20138 18-364 W22A limits assumed) above, with A5W, H40A counted along it
Description: as §1, §2

human CD33 L92A = human CD33 L92A (human, UniProt P20138 18-364); experiment: alanine scan, flow cytometry;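 note: HEK293-T cells transiently expressing single-residue alanine mutants of CD33 (alanine swapped to serine), antibody binding read by fluorescence in duplicate, background-subtracted, expressed relative to wild-type CD33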
human CD33 L92A, sequence (P20138 18-364 L92A limits assumed): as the sequence (P20138 18-364 W22A limits assumed) above, with A5W, L75A counted along it
Description: as §1, §2

human CD33 T253A = human CD33 T253A (human, UniProt P20138 18-364); experiment: alanine scan, flow cytometry, HEK293-T;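 note: antibody binding to each alanine-substituted CD33 mutant expressed transiently in HEK293-T, read as fluorescence minus background, mean of duplicates, relative to wild-type CD33 set as 100%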
human CD33 T253A, sequence (P20138 18-364 T253A limits assumed): as the sequence (P20138 18-364 W22A limits assumed) above, with A5W, T236A counted along it

human CD33 R254A = human CD33 R254A (human, UniProt P20138 18-364); experiment: alanine scan, flow cytometry, HEK293-T;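 note: antibody binding to each alanine-substituted CD33 mutant expressed transiently in HEK293-T, read as fluorescence minus background, mean of duplicates, relative to wild-type CD33 set as 100%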
human CD33 R254A, sequence (P20138 18-364 R254A limits assumed): as the sequence (P20138 18-364 W22A limits assumed) above, with A5W, R237A counted along it

human CD33 V257A = human CD33 V257A (human, UniProt P20138 18-364); experiment: alanine scan, flow cytometry, HEK293-T;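 note: antibody binding to each alanine-substituted CD33 mutant expressed transiently in HEK293-T, read as fluorescence minus background, mean of duplicates, relative to wild-type CD33 set as 100%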
human CD33 V257A, sequence (P20138 18-364 V257A limits assumed): as the sequence (P20138 18-364 W22A limits assumed) above, with A5W, V240A counted along it

human CD33 A265S = human CD33 A265S (human, UniProt P20138 18-364); experiment: alanine scan, flow cytometry, HEK293-T;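 note: antibody binding to each alanine-substituted CD33 mutant expressed transiently in HEK293-T, read as fluorescence minus background, mean of duplicates, relative to wild-type CD33 set as 100%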
human CD33 A265S, sequence (P20138 18-364 A265S limits assumed): as the sequence (P20138 18-364 W22A limits assumed) above, with A5W, A248S counted along it

human CD33 G266A = human CD33 G266A (human, UniProt P20138 18-364); experiment: alanine scan, flow cytometry, HEK293-T
human CD33 G266A, sequence (P20138 18-364 G266A limits assumed): as the sequence (P20138 18-364 W22A limits assumed) above, with A5W, G249A counted along it

human CD33 I278A = human CD33 I278A (human, UniProt P20138 18-364); experiment: alanine scan, flow cytometry, HEK293-T
human CD33 I278A, sequence (P20138 18-364 I278A limits assumed): as the sequence (P20138 18-364 W22A limits assumed) above, with A5W, I261A counted along it

human CD33 F279A = human CD33 F279A (human, UniProt P20138 18-364); experiment: alanine scan, flow cytometry, HEK293-T
human CD33 F279A, sequence (P20138 18-364 F279A limits assumed): as the sequence (P20138 18-364 W22A limits assumed) above, with A5W, F262A counted along it

human CD33 H285A = human CD33 H285A (human, UniProt P20138 18-364); experiment: alanine scan, flow cytometry, HEK293-T
human CD33 H285A, sequence (P20138 18-364 H285A limits assumed): as the sequence (P20138 18-364 W22A limits assumed) above, with A5W, H268A counted along it

human CD33 R286A = human CD33 R286A (human, UniProt P20138 18-364); experiment: alanine scan, flow cytometry, HEK293-T
human CD33 R286A, sequence (P20138 18-364 R286A limits assumed): as the sequence (P20138 18-364 W22A limits assumed) above, with A5W, R269A counted along it

human CD33 F243A = human CD33 F243A (human, UniProt P20138 18-364); experiment: alanine scan, flow cytometry, HEK293-T
human CD33 F243A, sequence (P20138 18-364 F243A limits assumed): as the sequence (P20138 18-364 W22A limits assumed) above, with A5W, F226A counted along it

human CD33 K288A = human CD33 K288A (human, UniProt P20138 18-364); experiment: alanine scan, flow cytometry, HEK293-T
human CD33 K288A, sequence (P20138 18-364 K288A limits assumed): as the sequence (P20138 18-364 W22A limits assumed) above, with A5W, K271A counted along it

human CD33 N297A = human CD33 N297A (human, UniProt P20138 18-364); experiment: alanine scan, flow cytometry, HEK293-T
human CD33 N297A, sequence (P20138 18-364 N297A limits assumed): as the sequence (P20138 18-364 W22A limits assumed) above, with A5W, N280A counted along it

human CD33 S305A = human CD33 S305A (human, UniProt P20138 18-364); experiment: alanine scan, flow cytometry, HEK293-T
human CD33 S305A, sequence (P20138 18-364 S305A limits assumed): as the sequence (P20138 18-364 W22A limits assumed) above, with A5W, S288A counted along it

human CD33 S307A = human CD33 S307A (human, UniProt P20138 18-364); experiment: alanine scan, flow cytometry, HEK293-T
human CD33 S307A, sequence (P20138 18-364 S307A limits assumed): as the sequence (P20138 18-364 W22A limits assumed) above, with A5W, S290A counted along it

| Binder | Mean % WT Binding (human CD33 W22A) | Mean % WT Binding (human CD33 D51A) | Mean % WT Binding (human CD33 H57A) | Mean % WT Binding (human CD33 L92A) | other results |
| --- | --- | --- | --- | --- | --- |
| B1 | 58.6 % WT | 126 % WT | 182 % WT | 129 % WT | – |
| B2 | 187 % WT | 36 % WT | 67.3 % WT | 85.2 % WT | – |
| B3 | 79.4 % WT | 82.4 % WT | 78.2 % WT | 75.2 % WT | – |
| B4 | 110 % WT | 59 % WT | 112 % WT | 106 % WT | – |
| B5 | – | – | – | – | Mean % WT Binding (human CD33 T253A): 108 % WT binding; Mean % WT Binding (human CD33 R254A): 101 % WT binding; Mean % WT Binding (human CD33 V257A): 110 % WT binding; Mean % WT Binding (human CD33 A265S): 126 % WT binding; Mean % WT Binding (human CD33 G266A): 112 % WT binding; Mean % WT Binding (human CD33 I278A): 116 % WT binding; Mean % WT Binding (human CD33 F279A): 103 % WT binding; Mean % WT Binding (human CD33 H285A): 95.2 % WT binding; Mean % WT Binding (human CD33 R286A): 101 % WT binding; Mean % WT Binding (human CD33 F243A): 69.9 % WT binding; Mean % WT Binding (human CD33 K288A): 100 % WT binding; Mean % WT Binding (human CD33 N297A): 88.9 % WT binding; Mean % WT Binding (human CD33 S305A): 104 % WT binding; Mean % WT Binding (human CD33 S307A): 114 % WT binding |
